Source: patent US20240116997A1 (BRIGHT PEAK THERAPEUTICS, published 2024)

T1: IL-18 receptor (IL-18Rαβ) on cells (UniProt Q13478 19-541; O95256 20-599, limits assumed)
T1 sequence (looked up) 1: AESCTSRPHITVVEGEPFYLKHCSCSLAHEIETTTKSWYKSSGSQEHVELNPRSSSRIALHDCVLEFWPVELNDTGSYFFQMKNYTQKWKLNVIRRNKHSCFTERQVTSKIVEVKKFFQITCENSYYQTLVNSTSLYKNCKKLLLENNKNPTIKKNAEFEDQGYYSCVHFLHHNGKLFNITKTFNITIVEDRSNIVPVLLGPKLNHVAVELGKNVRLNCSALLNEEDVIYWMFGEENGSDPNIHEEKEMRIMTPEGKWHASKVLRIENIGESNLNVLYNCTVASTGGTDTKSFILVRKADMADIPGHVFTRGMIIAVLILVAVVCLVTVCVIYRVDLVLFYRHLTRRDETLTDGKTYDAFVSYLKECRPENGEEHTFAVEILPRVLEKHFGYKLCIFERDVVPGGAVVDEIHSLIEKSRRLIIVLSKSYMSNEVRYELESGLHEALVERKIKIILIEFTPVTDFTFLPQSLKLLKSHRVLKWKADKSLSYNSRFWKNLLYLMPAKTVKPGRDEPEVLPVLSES
T1 sequence (looked up) 2: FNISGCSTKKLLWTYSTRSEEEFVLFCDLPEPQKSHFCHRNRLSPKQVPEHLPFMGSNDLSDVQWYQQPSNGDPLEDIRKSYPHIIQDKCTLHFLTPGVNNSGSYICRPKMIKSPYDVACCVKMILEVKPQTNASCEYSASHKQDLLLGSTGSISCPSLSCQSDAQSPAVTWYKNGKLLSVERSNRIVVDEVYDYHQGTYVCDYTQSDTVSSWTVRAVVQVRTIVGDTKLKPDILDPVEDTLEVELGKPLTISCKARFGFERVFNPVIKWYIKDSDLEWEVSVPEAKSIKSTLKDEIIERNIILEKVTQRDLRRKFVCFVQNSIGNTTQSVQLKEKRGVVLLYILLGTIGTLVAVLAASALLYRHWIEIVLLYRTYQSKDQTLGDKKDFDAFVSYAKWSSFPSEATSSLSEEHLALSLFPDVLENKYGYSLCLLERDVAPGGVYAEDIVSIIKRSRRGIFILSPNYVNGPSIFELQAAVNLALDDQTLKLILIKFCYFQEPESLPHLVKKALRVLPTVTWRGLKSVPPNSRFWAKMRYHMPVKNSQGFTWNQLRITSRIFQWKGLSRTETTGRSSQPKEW


What was measured:
Test in all cases: cell-based or functional assay
[1] = molecular target: T1, IL-18 receptor (IL-18Rαβ) on cells
[2] = molecular target: T1, IL-18 receptor (IL-18Rαβ) on cells; remark: listed apart in the source
[3] = molecular target: T1, IL-18 receptor (IL-18Rαβ) on cells; remark: listed apart in the source

Fold potency loss vs C086 [1] | HEK-blue EC50 [1] | EC50 (pM), HEK-Blue IL-18R reporter assay [2] | EC50 (nM), IFNγ induction, NK-92 cells [3] | Binder
29400 fold | 1240 nM | – | – | C187 (Propeptide-PLGLAG-C086; SEQ ID NO: 72) (ligand) MAAEPVEDNCINFVAMKFIDNTLYFIAEDDENLESDPLGLAGYFGKLKSKLSIIRNLNDQVLFIDQGNRPLFEDMTDSDARDNAPRTIFIISMYADSQPRGMAVAISVKCEKISTLSAENKIISFKEMNPPDNIKDTKSDIIFFQRSVPGHDNKMQFESSSYEGYFLAAEKERDLFKLILKKEDELGDRSIMFTVQNED
– | – | 3.14 pM | 0.176 nM | C164 (V11I, C38A, S55H, C76A, C127A) (ligand) YFGKLESKLSIIRNLNDQVLFIDQGNRPLFEDMTDSDARDNAPRTIFIISMYKDHQPRGMAVTISVKCEKISTLSAENKIISFKEMNPPDNIKDTKSDIIFFQRSVPGHDNKMQFESSSYEGYFLAAEKERDLFKLILKKEDELGDRSIMFTVQNED
– | – | 272 pM | 0.824 nM | IL-18 polypeptide SEQ ID NO: 34 (E06K, K53A, S55A) (ligand) YFGKLKSKLSVIRNLNDQVLFIDQGNRPLFEDMTDSDCRDNAPRTIFIISMYADAQPRGMAVTISVKCEKISTLSCENKIISFKEMNPPDNIKDTKSDIIFFQRSVPGHDNKMQFESSSYEGYFLACEKERDLFKLILKKEDELGDRSIMFTVQNED
– | – | 1.5 pM | 0.414 nM | C163 (V11I, C38A, C76A, Q103K, C127A) (ligand) YFGKLESKLSIIRNLNDQVLFIDQGNRPLFEDMTDSDARDNAPRTIFIISMYKDSQPRGMAVTISVKCEKISTLSAENKIISFKEMNPPDNIKDTKSDIIFFKRSVPGHDNKMQFESSSYEGYFLAAEKERDLFKLILKKEDELGDRSIMFTVQNED
– | – | 1.91 pM | 0.098 nM | C165 (V11I, C38A, S55R, C76A, C127A) (ligand) YFGKLESKLSIIRNLNDQVLFIDQGNRPLFEDMTDSDARDNAPRTIFIISMYKDRQPRGMAVTISVKCEKISTLSAENKIISFKEMNPPDNIKDTKSDIIFFQRSVPGHDNKMQFESSSYEGYFLAAEKERDLFKLILKKEDELGDRSIMFTVQNED
– | – | 7.73 pM | 1.37 nM | C168 (V11I, C38A, C76A, S105K, C127A) (ligand) YFGKLESKLSIIRNLNDQVLFIDQGNRPLFEDMTDSDARDNAPRTIFIISMYKDSQPRGMAVTISVKCEKISTLSAENKIISFKEMNPPDNIKDTKSDIIFFQRKVPGHDNKMQFESSSYEGYFLAAEKERDLFKLILKKEDELGDRSIMFTVQNED
– | – | 5.37 pM | 0.098 nM | C167 (V11I, C38A, C76A, S105I, C127A) (ligand) YFGKLESKLSIIRNLNDQVLFIDQGNRPLFEDMTDSDARDNAPRTIFIISMYKDSQPRGMAVTISVKCEKISTLSAENKIISFKEMNPPDNIKDTKSDIIFFQRIVPGHDNKMQFESSSYEGYFLAAEKERDLFKLILKKEDELGDRSIMFTVQNED
– | – | 4.73 pM | 0.103 nM | C166 (V11I, C38A, S55T, C76A, C127A) (ligand) YFGKLESKLSIIRNLNDQVLFIDQGNRPLFEDMTDSDARDNAPRTIFIISMYKDTQPRGMAVTISVKCEKISTLSAENKIISFKEMNPPDNIKDTKSDIIFFQRSVPGHDNKMQFESSSYEGYFLAAEKERDLFKLILKKEDELGDRSIMFTVQNED
60900 fold | 2560 nM | – | – | C185 (Propeptide-PLG-C086; SEQ ID NO: 70) (ligand) MAAEPVEDNCINFVAMKFIDNTLYFIAEDDENLESDPLGYFGKLKSKLSIIRNLNDQVLFIDQGNRPLFEDMTDSDARDNAPRTIFIISMYADSQPRGMAVAISVKCEKISTLSAENKIISFKEMNPPDNIKDTKSDIIFFQRSVPGHDNKMQFESSSYEGYFLAAEKERDLFKLILKKEDELGDRSIMFTVQNED

Further lines, the binder ahead of its results:

Binder | Fold potency loss vs C086 [1] | HEK-blue EC50 [1] | EC50 (pM), HEK-Blue IL-18R reporter assay [2] | EC50 (nM), IFNγ induction, NK-92 cells [3]
C153 (V11I, D37A, C38A, K53A, C76A, C127A) (ligand) YFGKLESKLSIIRNLNDQVLFIDQGNRPLFEDMTDSAARDNAPRTIFIISMYADSQPRGMAVTISVKCEKISTLSAENKIISFKEMNPPDNIKDTKSDIIFFQRSVPGHDNKMQFESSSYEGYFLAAEKERDLFKLILKKEDELGDRSIMFTVQNED | – | – | 14.1 pM | 0.062 nM
C157 (V11I, C38A, K53A, C76A, C127A, D132A) (ligand) YFGKLESKLSIIRNLNDQVLFIDQGNRPLFEDMTDSDARDNAPRTIFIISMYADSQPRGMAVTISVKCEKISTLSAENKIISFKEMNPPDNIKDTKSDIIFFQRSVPGHDNKMQFESSSYEGYFLAAEKERALFKLILKKEDELGDRSIMFTVQNED | – | – | 1.95 pM | 0.073 nM
C159 (V11I, C38A, K53A, C76A, H109A, C127A) (ligand) YFGKLESKLSIIRNLNDQVLFIDQGNRPLFEDMTDSDARDNAPRTIFIISMYADSQPRGMAVTISVKCEKISTLSAENKIISFKEMNPPDNIKDTKSDIIFFQRSVPGADNKMQFESSSYEGYFLAAEKERDLFKLILKKEDELGDRSIMFTVQNED | – | – | 19.5 pM | 0.028 nM
C161 (K8R, V11I, C38A, C76A, Q103E, C127A) (ligand) YFGKLESRLSIIRNLNDQVLFIDQGNRPLFEDMTDSDARDNAPRTIFIISMYKDSQPRGMAVTISVKCEKISTLSAENKIISFKEMNPPDNIKDTKSDIIFFERSVPGHDNKMQFESSSYEGYFLAAEKERDLFKLILKKEDELGDRSIMFTVQNED | – | – | 2.01 pM | 0.061 nM
C160 (V11I, C38A, K53A, C76A, D110A, C127A) (ligand) YFGKLESKLSIIRNLNDQVLFIDQGNRPLFEDMTDSDARDNAPRTIFIISMYADSQPRGMAVTISVKCEKISTLSAENKIISFKEMNPPDNIKDTKSDIIFFQRSVPGHANKMQFESSSYEGYFLAAEKERDLFKLILKKEDELGDRSIMFTVQNED | – | – | 2.02 pM | 0.057 nM
C162 (K8E, V11I, C38A, C76A, Q103R, C127A) (ligand) YFGKLESELSIIRNLNDQVLFIDQGNRPLFEDMTDSDARDNAPRTIFIISMYKDSQPRGMAVTISVKCEKISTLSAENKIISFKEMNPPDNIKDTKSDIIFFRRSVPGHDNKMQFESSSYEGYFLAAEKERDLFKLILKKEDELGDRSIMFTVQNED | – | – | 2.3 pM | 0.093 nM
C156 (V11I, C38A, N41A, K53A, C76A, C127A) (ligand) YFGKLESKLSIIRNLNDQVLFIDQGNRPLFEDMTDSDARDAAPRTIFIISMYADSQPRGMAVTISVKCEKISTLSAENKIISFKEMNPPDNIKDTKSDIIFFQRSVPGHDNKMQFESSSYEGYFLAAEKERDLFKLILKKEDELGDRSIMFTVQNED | – | – | 11.7 pM | 0.056 nM
C155 (V11I, C38A, D40A, K53A, C76A, C127A) (ligand) YFGKLESKLSIIRNLNDQVLFIDQGNRPLFEDMTDSDARANAPRTIFIISMYADSQPRGMAVTISVKCEKISTLSAENKIISFKEMNPPDNIKDTKSDIIFFQRSVPGHDNKMQFESSSYEGYFLAAEKERDLFKLILKKEDELGDRSIMFTVQNED | – | – | 0.52 pM | 0.558 nM
C154 (V11I, E31A, D37A, C38A, K53A, C76A, C127A) (ligand) YFGKLESKLSIIRNLNDQVLFIDQGNRPLFADMTDSAARDNAPRTIFIISMYADSQPRGMAVTISVKCEKISTLSAENKIISFKEMNPPDNIKDTKSDIIFFQRSVPGHDNKMQFESSSYEGYFLAAEKERDLFKLILKKEDELGDRSIMFTVQNED | – | – | 11.9 pM | 0.067 nM
C158 (V11I, C38A, K53A, C76A, G108A, C127A) (ligand) YFGKLESKLSIIRNLNDQVLFIDQGNRPLFEDMTDSDARDNAPRTIFIISMYADSQPRGMAVTISVKCEKISTLSAENKIISFKEMNPPDNIKDTKSDIIFFQRSVPAHDNKMQFESSSYEGYFLAAEKERDLFKLILKKEDELGDRSIMFTVQNED | – | – | 15.6 pM | 0.123 nM
